Measured values taken from patent publication US20140087995A1 (published 2014).
Numbered stars: 1 amine (or outer) side, 2 acyl side, 3 side chain; on linkers, the order of the positions; unused ones are H or OH. Bridge positions count the residues as written; N and C are the ends. Side chains are listed from the residue outwards. Ends that are not written are not given here. * marks the point of attachment. C20 diacid = O=C(O)CCCCCCCCCCCCCCCCCCC(=O)*; γGlu = O=C(O)[C@H](CCC(=O)[*:2])N[*:1]

T1: human amylin receptor (amylin 3(a) receptor: human calcitonin receptor plus RAMP-3) (human, UniProt P30988 25-474; O60896 24-148, limits assumed)
T1 sequence (looked up) 1: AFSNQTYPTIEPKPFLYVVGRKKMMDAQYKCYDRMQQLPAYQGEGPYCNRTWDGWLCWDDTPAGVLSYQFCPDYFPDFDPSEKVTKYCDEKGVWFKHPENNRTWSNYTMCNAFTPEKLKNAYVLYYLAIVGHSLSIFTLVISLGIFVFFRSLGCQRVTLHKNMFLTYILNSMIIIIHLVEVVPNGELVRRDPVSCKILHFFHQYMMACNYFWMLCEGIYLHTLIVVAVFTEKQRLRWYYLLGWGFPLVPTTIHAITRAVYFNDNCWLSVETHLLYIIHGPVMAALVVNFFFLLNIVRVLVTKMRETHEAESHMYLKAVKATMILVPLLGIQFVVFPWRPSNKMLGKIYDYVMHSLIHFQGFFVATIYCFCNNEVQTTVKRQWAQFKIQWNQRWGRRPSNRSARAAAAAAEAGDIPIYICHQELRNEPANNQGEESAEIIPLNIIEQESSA
T1 sequence (looked up) 2: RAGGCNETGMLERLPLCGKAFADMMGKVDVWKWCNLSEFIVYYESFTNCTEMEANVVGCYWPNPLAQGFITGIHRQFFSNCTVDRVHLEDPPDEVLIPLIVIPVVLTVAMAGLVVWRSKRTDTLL

T2: human calcitonin receptor (human, UniProt P30988 25-474)
T2 sequence (looked up): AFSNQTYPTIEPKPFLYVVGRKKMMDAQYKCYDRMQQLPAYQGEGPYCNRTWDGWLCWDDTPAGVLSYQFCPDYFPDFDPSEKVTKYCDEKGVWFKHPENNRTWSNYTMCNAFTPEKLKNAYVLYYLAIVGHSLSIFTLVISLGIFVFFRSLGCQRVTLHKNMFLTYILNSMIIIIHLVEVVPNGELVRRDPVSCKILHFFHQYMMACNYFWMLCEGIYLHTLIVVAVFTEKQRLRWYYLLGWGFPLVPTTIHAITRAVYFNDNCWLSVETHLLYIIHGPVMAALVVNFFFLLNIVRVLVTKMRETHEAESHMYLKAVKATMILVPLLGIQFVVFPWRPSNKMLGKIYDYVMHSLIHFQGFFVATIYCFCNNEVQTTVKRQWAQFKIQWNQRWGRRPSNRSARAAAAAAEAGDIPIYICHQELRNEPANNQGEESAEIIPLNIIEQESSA

B1: N^α1-[2-[2-[2-[[2-[2-[2-[[(4S)-4-carboxy-4-(19-carboxynonadecanoylamino)butanoyl]amino]ethoxy]ethoxy]acetyl]amino]ethoxy]ethoxy]acetyl]-[Arg17,Pro21,Pro27]-h-am … (peptide)
peptide: KCNTATCATQRLANFLRHSSPNFGAIPSSTNVGSNTY
modifications: C20 diacid-gGlu-2xOEG on the alpha amino group of the N-terminal residue; disulfide bridge Cys2-Cys7; C-terminal amide
notes: Synthetic acylated analogue of human amylin; also called compound 24
B2: N^α1-[(4S)-4-carboxy-4-(19-carboxynonadecanoylamino)butanoyl]-[Arg17,Pro21,Pro27,His34]-h-amylin (peptide)
peptide: KCNTATCATQRLANFLRHSSPNFGAIPSSTNVGHNTY
modifications: C20 diacid-gGlu on the alpha amino group of the N-terminal residue; disulfide bridge Cys2-Cys7; C-terminal amide
notes: Synthetic acylated analogue of human amylin; also called compound 40
B3: N^ε1-[(4S)-4-carboxy-4-[[(4S)-4-carboxy-4-(19-carboxynonadecanoylamino)butanoyl]amino]butanoyl]-[Asp14,Arg17,Pro21,Pro27,Arg35]-h-amylin (peptide)
peptide: K([γGlu-γGlu-C20 diacid])CNTATCATQRLADFLRHSSPNFGAIPSSTNVGSRTY-NH2
modifications: disulfide 2-7; N-terminus assumed
SMILES: CC[C@H](C)[C@H](NC(=O)[C@H](C)NC(=O)CNC(=O)[C@H](Cc1ccccc1)NC(=O)[C@H](CC(N)=O)NC(=O)[C@@H]1CCCN1C(=O)[C@H](CO)NC(=O)[C@H](CO)NC(=O)[C@H](Cc1c[nH]cn1)NC(=O)[C@H](CCCNC(=N)N)NC(=O)[C@H](CC(C)C)NC(=O)[C@H](Cc1ccccc1)NC(=O)[C@H](CC(=O)O)NC(=O)[C@H](C)NC(=O)[C@H](CC(C)C)NC(=O)[C@H](CCCNC(=N)N)NC(=O)[C@H](CCC(N)=O)NC(=O)[C@@H](NC(=O)[C@H](C)NC(=O)[C@@H]1CSSC[C@H](NC(=O)[C@@H](N)CCCCNC(=O)CC[C@H](NC(=O)CC[C@H](NC(=O)CCCCCCCCCCCCCCCCCCC(=O)O)C(=O)O)C(=O)O)C(=O)N[C@@H](CC(N)=O)C(=O)N[C@@H]([C@@H](C)O)C(=O)N[C@@H](C)C(=O)N[C@@H]([C@@H](C)O)C(=O)N1)[C@@H](C)O)C(=O)N1CCC[C@H]1C(=O)N[C@@H](CO)C(=O)N[C@@H](CO)C(=O)N[C@H](C(=O)N[C@@H](CC(N)=O)C(=O)N[C@H](C(=O)NCC(=O)N[C@@H](CO)C(=O)N[C@@H](CCCNC(=N)N)C(=O)N[C@H](C(=O)N[C@@H](Cc1ccc(O)cc1)C(N)=O)[C@@H](C)O)C(C)C)[C@@H](C)O
notes: Synthetic acylated analogue of human amylin; also called compound 52
B4: N^α1-[(4S)-4-carboxy-4-(19-carboxynonadecanoylamino)butanoyl]-[Arg17,Pro21,Pro27,Arg34]-h-amylin (peptide)
peptide: KCNTATCATQRLANFLRHSSPNFGAIPSSTNVGRNTY
modifications: C20 diacid-gGlu on the alpha amino group of the N-terminal residue; disulfide bridge Cys2-Cys7; C-terminal amide
notes: Synthetic acylated analogue of human amylin; also called compound 39
B5: N^α1-[(4S)-4-carboxy-4-(19-carboxynonadecanoylamino)butanoyl]-[Arg17,Pro21,Pro27,Glu35]-h-amylin (peptide)
peptide: KCNTATCATQRLANFLRHSSPNFGAIPSSTNVGSETY
modifications: C20 diacid-gGlu on the alpha amino group of the N-terminal residue; disulfide bridge Cys2-Cys7; C-terminal amide
notes: Synthetic acylated analogue of human amylin; also called compound 23

How the values were obtained:
[1] = target: T1, human amylin receptor (amylin 3(a) …); assay: cell-based or functional assay
[2] = target: T2, human calcitonin receptor; assay: cell-based or functional assay

| Binder | Ratio hCT/hAmylin funct. [1] | hAmylin-R funct. EC50 [1] | hCTR funct. EC50 [2] |
| --- | --- | --- | --- |
| B1 | 23.1 ratio | 0.433 nM | 10 nM |
| B2 | 16.4 ratio | 0.164 nM | 2.68 nM |
| B3 | – | – | 14.1 nM |
| B4 | 11.6 ratio | 0.217 nM | 2.52 nM |
| B5 | 8.9 ratio | 0.34 nM | 3.02 nM |
